Experimental data from publication PMC4731272.

What was measured:
Assay in all cases: ITC
mTet3-CXXC K88A = target: T1, mTet3-CXXC K88A (Mus musculus (mouse), UniProt Q8BG87 51-96, K88A)
T1 chain: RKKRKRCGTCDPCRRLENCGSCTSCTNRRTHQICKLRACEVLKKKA

mTet3-CXXC T80A = target: T2, mTet3-CXXC T80A (Mus musculus (mouse), UniProt Q8BG87 51-96, T80A)
T2 chain: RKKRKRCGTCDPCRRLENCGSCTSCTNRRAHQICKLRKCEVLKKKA

XtTet3-CXXC = target: T3, XtTet3-CXXC (Xenopus tropicalis, UniProt A0JP82 58-99)
T3 chain: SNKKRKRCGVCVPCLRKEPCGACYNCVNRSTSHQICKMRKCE

mTet3-CXXC H81A = target: T4, mTet3-CXXC H81A (Mus musculus (mouse), UniProt Q8BG87 51-96, H81A)
T4 chain: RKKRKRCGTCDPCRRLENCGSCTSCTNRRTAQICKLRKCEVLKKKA

mTet3-CXXC Q82A = target: T5, mTet3-CXXC Q82A (Mus musculus (mouse), UniProt Q8BG87 51-96, Q82A)
T5 chain: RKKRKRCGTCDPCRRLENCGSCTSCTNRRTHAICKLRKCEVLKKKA

mTet3-CXXC = target: T6, mTet3-CXXC (Mus musculus (mouse), UniProt Q8BG87 51-96)
T6 chain: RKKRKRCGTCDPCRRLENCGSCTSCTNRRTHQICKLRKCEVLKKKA

B1: CCG DNA (dsDNA)
DNA 1: GAATCCGGATTC
DNA 2: GAATCCGGATTC
Kd (mTet3-CXXC K88A): 5320 nM
Kd (mTet3-CXXC T80A): 1790 nM
Kd (XtTet3-CXXC): 2580 nM
binding result (mTet3-CXXC H81A): no binding
Kd (mTet3-CXXC Q82A): 2380 nM
Kd (mTet3-CXXC): 1880 nM

B2: CcaCG DNA (dsDNA)
DNA 1: GAATCCGGATTC
DNA 2: GAATCCGGATTC
modifications: 5-carboxyl-dC at position 6 of both strands
Kd (mTet3-CXXC T80A): 910 nM
Kd (XtTet3-CXXC): 1300 nM
binding result (mTet3-CXXC H81A): no binding
Kd (mTet3-CXXC Q82A): 970 nM
Kd (mTet3-CXXC): 560 nM

B3: CmCG DNA (dsDNA)
DNA 1: GAATCCGGATTC
DNA 2: GAATCCGGATTC
modifications: 5-methyl-dC at position 6 of both strands
Kd (XtTet3-CXXC): 9000 nM
Kd (mTet3-CXXC): 5590 nM

B4: CfCG DNA (dsDNA)
DNA 1: GAATCCGGATTC
DNA 2: GAATCCGGATTC
modifications: 5-formyl-dC at position 6 of both strands
Kd (XtTet3-CXXC): 10400 nM
Kd (mTet3-CXXC): 6130 nM

B5: hemi-CcaCG DNA (dsDNA)
DNA 1: GAATCCGGATTC
DNA 2: GAATCCGGATTC
modifications: 5-carboxyl-dC at position 6 of one strand only
Kd (mTet3-CXXC): 1570 nM

B6: ChmCG DNA (dsDNA)
DNA 1: GAATCCGGATTC
DNA 2: GAATCCGGATTC
modifications: 5-hydroxymethyl-dC at position 6 of both strands
Kd (XtTet3-CXXC): 18600 nM
